From the supplement of paper PMC11246515
± gives the standard deviation of the averaged measurements.

Assay: total protein half-life in vivo (active degradation + dilution); higher = more stable protein
[1] = E. coli NCM3722 delta-clpP delta-lon delta-hslV, growth: N-lim chemostat, doubling time 6 h
[2] = E. coli NCM3722 delta-clpP, growth: N-lim chemostat, doubling time 6 h
[3] = E. coli NCM3722 delta-hslV, growth: N-lim chemostat, doubling time 6 h
[4] = E. coli NCM3722 delta-lon, growth: N-lim chemostat, doubling time 6 h
[5] = E. coli NCM3722 delta-smpB, growth: N-lim chemostat, doubling time 6 h
[6] = wild type E. coli NCM3722, growth: C-lim chemostat, doubling time 3 h
[7] = wild type E. coli NCM3722, growth: C-lim chemostat, doubling time 6 h
[8] = wild type E. coli NCM3722, growth: C-lim chemostat, doubling time 12 h
[9] = wild type E. coli NCM3722, growth: N-lim chemostat, doubling time 6 h
[10] = wild type E. coli NCM3722, growth: N-lim chemostat, doubling time 12 h
[11] = wild type E. coli NCM3722, growth: P-lim chemostat, doubling time 6 h
[12] = wild type E. coli NCM3722, growth: P-lim chemostat, doubling time 12 h

Row | Sequence | total protein half-life in vivo [1] | total protein half-life in vivo [2] | total protein half-life in vivo [3] | total protein half-life in vivo [4] | total protein half-life in vivo [5] | total protein half-life in vivo [6] | total protein half-life in vivo [7] | total protein half-life in vivo [8] | total protein half-life in vivo [9] | total protein half-life in vivo [10] | total protein half-life in vivo [11] | total protein half-life in vivo [12]
1 | MHWQTHTVFNQPIPLNNSNLYLSDGALCEAVTREGAGWDSDFLASIGQQLGTAESLELGRLANVNPPELLRYDAQGRRLDDVRFHPAWHLLMQALCTNRVHNLAWEEDARSGAFVARAARFMLHAQVEAGSLCPITMTFAATPLLLQMLPAPFQDWTTPLLSDRYDSHLLPGGQKRGLLIGMGMTEKQGGSDVMSNTTRAERLEDGSYRLVGHKWFFSVPQSDAHLVLAQTAGGLSCFFVPRFLPDGQRNAIRLERLKDKLGNRSNASCEVEFQDAIGWLLGLEGEGIRLILKMGGMTRFDCALGSHAMMRRAFSLAIYHAHQRHVFGNPLIQQPLMRHVLSRMALQLEGQTALLFRLARAWDRRADAKEALWARLFTPAAKFVICKRGMPFVAEAMEVLGGIGYCEESELPRLYREMPVNSIWEGSGNIMCLDVLRVLNKQAGVYDLLSEAFVEVKGQDRYFDRAVRRLQQQLRKPAEELGREITHQLFLLGCGAQMLKYASPPMAQAWCQVMLDTRGGVRLSEQIQNDLLLRATGGVCV | 4.81 ± 0.12 h | 4.91 ± 0.18 h | 5.583 ± 0.035 h | 4.72 ± 0.15 h | 5.28 ± 0.11 h | 3.296 ± 0.026 h | 5.91 ± 0.25 h | 11.3 ± 0.59 h | 5.18 ± 0.13 h | 11.5 ± 0.84 h | 6.51 ± 0.25 h | 11.5 ± 0.058 h
2 | MIAEFESRILALIDGMVDHASDDELFASGYLRGHLTLAIAELESGDDHSAQAVHTTVSQSLEKAIGAGELSPRDQALVTDMWENLFQQASQQ | 4.91 ± 0.31 h | 3.35 ± 0.41 h | 2.9 ± 0.23 h | 3.81 ± 0.062 h | 2.1 ± 0.046 h | 2.2 ± 0.23 h | 3.39 ± 0.1 h | 4.87 ± 0.25 h | 2.71 ± 0.54 h | 3.79 h | 2.75 ± 0.83 h | 4.58 ± 0.62 h
3 | MIAITGATGQLGHYVIESLMKTVPASQIVAIVRNPAKAQALAAQGITVRQADYGDEAALTSALQGVEKLLLISSSEVGQRAPQHRNVINAAKAAGVKFIAYTSLLHADTSPLGLADEHIETEKMLADSGIVYTLLRNGWYSENYLASAPAALEHGVFIGAAGDGKIASATRADYAAAAARVISEAGHEGKVYELAGDSAWTLTQLAAELTKQSGKQVTYQNLSEADFAAALKSVGLPDGLADMLADSDVGASKGGLFDDSKTLSKLIGHPTTTLAESVSHLFNVNN | 5.42 ± 0.13 h | 4.93 ± 0.067 h | 4.99 ± 0.61 h | 5.3 ± 0.25 h | 4.569 ± 0.035 h | 3.2 ± 0.18 h | 5.84 ± 0.31 h | 8.9 ± 2 h | 5.15 ± 0.28 h | 8.33 h | 6.72 ± 0.65 h | 13.1 ± 1.4 h
4 | MICRFIDTHCHFDFPPFSGDEEASLQRAAQAGVGKIIVPATEAENFARVLALAENYQPLYAALGLHPGMLEKHSDVSLEQLQQALERRPAKVVAVGEIGLDLFGDDPQFERQQWLLDEQLKLAKRYDLPVILHSRRTHDKLAMHLKRHDLPRTGVVHGFSGSLQQAERFVQLGYKIGVGGTITYPRASKTRDVIAKLPLASLLLETDAPDMPLNGFQGQPNRPEQAARVFAVLCELRREPADEIAQALLNNTYTLFNVP | 5.92 ± 0.41 h | 4.26 ± 0.21 h | 4.72 ± 0.12 h | 6.38 ± 1.4 h | 4.45 ± 0.36 h | 3.12 ± 0.34 h | > 8 h | 9.45 ± 4.5 h | 4.57 ± 0.41 h | 8.41 ± 1.9 h |  | 12.3 ± 0.15 h
5 | MIDPKKIEQIARQVHESMPKGIREFGEDVEKKIRQTLQAQLTRLDLVSREEFDVQTQVLLRTREKLALLEQRISELENRSTEIKKQPDPETLPPTL |  | 6.97 ± 0.85 h | 6.5 ± 1.2 h | 5.8 ± 0.65 h | 5.79 ± 0.91 h | 3.5 ± 0.19 h | 5.53 ± 0.24 h |  | 4.27 ± 0.63 h | 11.5 ± 5.3 h | 4.66 ± 1.2 h | 10.8 ± 0.66 h
6 | MIDVLGPEKRRRRTTQEKIAIVQQSFEPGMTVSLVARQHGVAASQLFLWRKQYQEGSLTAVAAGEQVVPASELAAAMKQIKELQRLLGKKTMENELLKEAVEYGRAKKWIAHAPLLPGDGE [P0CF42] | 2.54 ± 0.27 h |  |  |  |  | 0.121 h |  | 1.26 h | 0.716 h | 1.37 h |  | 
7 | MIEFDNLTYLHGKPQGTGLLKANPEDFVVVEDLGFEPDGEGEHILVRILKNGCNTRFVADALAKFLKIHAREVSFAGQKDKHAVTEQWLCARVPGKEMPDLSAFQLEGCQVLEYARHKRKLRLGALKGNAFTLVLREVSNRDDVEQRLIDICVKGVPNYFGAQRFGIGGSNLQGAQRWAQTNTPVRDRNKRSFWLSAARSALFNQIVAERLKKADVNQVVDGDALQLAGRGSWFVATTEELAELQRRVNDKELMITAALPGSGEWGTQREALAFEQAAVAAETELQALLVREKVEAARRAMLLYPQQLSWNWWDDVTVEIRFWLPAGSFATSVVRELINTTGDYAHIAE | 5.52 ± 0.077 h | 5.85 ± 0.93 h | 5.53 ± 0.64 h | 6.03 ± 0.79 h | 5.8 ± 0.21 h | 3.11 ± 0.11 h | 5.78 ± 0.067 h | 12.8 ± 1.1 h | 4.93 ± 0.21 h | 9.75 ± 0.26 h | 5.99 ± 0.14 h | 12.6 ± 0.88 h
